The values below come from paper PMC12233092, “NSUN2-mediated HCV RNA m5C Methylation Facilitates Viral RNA Stability and Replication”.

Holding throughout (details): protein: recombinant; tags: 6xHis; blunt
Data set [1] addresses T1, E2F1 (Homo sapiens? (cDNA amplified, Huh7.5.1 …, UniProt Q01094 1-437)). The data set is described as follows: EMSA; E2F1 50-400 nM, probe 10 nM; EMSA binding buffer (Beyotime GS005; composition and pH not given), room temperature, 30 min; 8% TBE agarose gel as stated, on ice, 80 V 1.5 h.
The target of data set [2] is T1, E2F1. Put plainly: competition; 10 uM unlabeled competitor vs 10 nM FAM-labeled N1; interaction abrogated; EMSA binding buffer (Beyotime GS005; composition and pH not given), room temperature, 30 min; 8% TBE agarose gel as stated, on ice, 80 V 1.5 h.
Data set [3] deals with T1, E2F1. The data set is described as follows: EMSA; probe 10 nM; EMSA binding buffer (Beyotime GS005; composition and pH not given), room temperature, 30 min; 8% TBE agarose gel as stated, on ice, 80 V 1.5 h.

Substitutions are numbered along the chain they refer to.

T1 sequence (Q01094 whole entry): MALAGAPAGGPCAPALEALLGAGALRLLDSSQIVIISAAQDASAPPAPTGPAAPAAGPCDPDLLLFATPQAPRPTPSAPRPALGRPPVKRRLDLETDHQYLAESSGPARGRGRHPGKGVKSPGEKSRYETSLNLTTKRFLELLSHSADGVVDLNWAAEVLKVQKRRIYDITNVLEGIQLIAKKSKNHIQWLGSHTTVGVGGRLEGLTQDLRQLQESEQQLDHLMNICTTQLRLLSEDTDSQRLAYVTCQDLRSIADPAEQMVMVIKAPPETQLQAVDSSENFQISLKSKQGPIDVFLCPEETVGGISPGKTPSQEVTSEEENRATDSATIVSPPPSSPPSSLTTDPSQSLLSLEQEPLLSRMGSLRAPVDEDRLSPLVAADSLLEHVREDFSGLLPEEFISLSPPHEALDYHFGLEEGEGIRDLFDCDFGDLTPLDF

B1: NSUN2-Promoter-probe (dsDNA)
DNA 1: CTGACGATTGCGCGCGAAGACCGCGCAGCCCA
DNA 2: TGGGCTGCGCGGTCTTCGCGCGCAATCGTCAG
B1: the binding result with E2F1 [1] was “binds”.

B2: NSUN2-Promoter-probe, unlabeled competitor (dsDNA)
DNA 1: B1 DNA 1
DNA 2: B1 DNA 2
In the case of B2, in the data set with E2F1 [2], the binding result was “binds”.

B3: NSUN2-Promoter-Mut-probe (dsDNA)
DNA 1: CTGACGATGGGATTCTTTGACCGCGCAGCCCA
DNA 2: TGGGCTGCGCGGTCAAAGAATCCCATCGTCAG
Consider B3, for which the binding result with E2F1 [3] is recorded as “no binding”.
